Data: PMC4989518, “In situ expression of (R)-carbonyl reductase rebalancing an asymmetric pathway improves stereoconversion efficiency of racemic mixture to (S)-phenyl-1,2-ethanediol in Candida parapsilosis CCTCC M203011” (Microbial Cell Factories, 2016)

Test system: OC[C@H](O)c1ccccc1
Test: purified protein
Conditions: oxidation to 2-HAP, NAD+, 100 mM acetate pH 6.5, 35 °C, enzyme from C. parapsilosis/pCP-rcr

Q: What does the source list for “recombinant RCR (C. parapsilosis/pCP-rcr) (Lodderomyces parapsilosis)”?
A: Km: 6.31 ± 0.09 mM; kcat: 3.19 ± 0.22 s⁻¹; kcat/Km: 510 M⁻¹ s⁻¹
